From patent US20260263645A1 (published 2026)

Biological target: TGFβ1 (UniProt P01137 279-390)
Test: radioligand plate binding; 89Zr-labeled

TGFβ1, sequence (P01137 279-390): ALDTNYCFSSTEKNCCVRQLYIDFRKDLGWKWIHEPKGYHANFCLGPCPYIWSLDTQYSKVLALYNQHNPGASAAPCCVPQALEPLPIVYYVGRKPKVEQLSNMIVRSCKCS

B1: Fresolimumab (antibody, V domains shown)
VH: QVQLVQSGAEVKKPGSSVKVSCKASGYTFSSNVISWVRQAPGQGLEWMGGVIPIVDIANYAQRFKGRVTITADESTSTTYMELSSLRSEDTAVYYCASTLGLVLDAMDYWGQGTLVTVSS
VL: ETVLTQSPGTLSLSPGERATLSCRASQSLGSSYLAWYQQKPGQAPRLLIYGASSRAPGIPDRFSGSGSGTDFTLTISRLEPEDFAVYYCQQYADSPITFGQGTRLEIKR
Kd: 66 nM
